Reference: the Human Domainome abundance scans (Beltran et al. 2025)
± gives the uncertainty stated by the source.

B1: Membrane-associated guanylate kinase, WW and PDZ domain-containing protein 1, residues 352 to 401; numbered along this chain, Q96QZ7 (parent)
chain: TEELDSELELPAGWEKIEDPVYGIYYVDHINRKTQYENPVLEAKRKKQLE

Variants of: B1
Experiment: abundance fitness (aPCA) (normalised: wild type 0, dead -1); higher = more abundant; growth selection in yeast, the domain comes from the species named
Settings: Homo sapiens

Variant	abundance fitness
Y26P	-0.404 ± 0.052
Y26W	-0.257 ± 0.055
Y26A	-0.321 ± 0.044
Y26F	-0.137 ± 0.071
Y26G	-0.395 ± 0.055
Y26I	-0.982 ± 0.15
Y26K	-0.563 ± 0.056
Y26V	-0.668 ± 0.05
Y26N	-0.54 ± 0.16
Y26M	-0.552 ± 0.08
Y26T	-0.457 ± 0.1
Y26L	-0.741 ± 0.074
Y26R	-0.549 ± 0.047
Y26E	-0.213 ± 0.054
Y26Q	-0.385 ± 0.069
Y26S	-0.337 ± 0.065
I17S	-0.484 ± 0.061
I17T	-0.266 ± 0.058
I17V	0.072 ± 0.065
I17Y	-0.06 ± 0.11
I17W	-0.322 ± 0.04
I17R	-0.01 ± 0.057
I24P	-0.057 ± 0.055
I24K	-0.238 ± 0.097

Variant	abundance fitness
I24A	-0.323 ± 0.07
I24C	-0.22 ± 0.065
I24S	-0.144 ± 0.074
I24H	-0.64 ± 0.22
I24Q	-0.225 ± 0.1
I24E	0.067 ± 0.082
I24Y	-0.569 ± 0.14
I24F	0.015 ± 0.45
I24V	-0.066 ± 0.06
I24D	-0.387 ± 0.16
I24T	0.039 ± 0.047
I24G	-0.208 ± 0.06
I24R	-0.203 ± 0.042
I24W	-0.344 ± 0.07
I24L	-0.223 ± 0.059
Y22G	-0.027 ± 0.051
Y22I	-0.162 ± 0.092
Y22W	-0.186 ± 0.077
Y22Q	-0.156 ± 0.11
Y22H	0.1 ± 0.11
Y22F	-0.122 ± 0.06
Y22D	-0.078 ± 0.069
Y22N	-0.199 ± 0.12
Y22T	-0.159 ± 0.091

Variant	abundance fitness
Y22P	-0.24 ± 0.094
Y22E	-0.004 ± 0.06
Y22V	-0.051 ± 0.063
Y22R	0.056 ± 0.042
Y22S	-0.035 ± 0.043
Y22C	-0.061 ± 0.055
Y22K	0.082 ± 0.055
Y22M	-0.378 ± 0.099
Y22A	-0.041 ± 0.068
V21G	-0.307 ± 0.057
V21I	-0.034 ± 0.098
V21H	-0.232 ± 0.13
V21K	0.012 ± 0.095
V21L	0.026 ± 0.043
V21T	0.081 ± 0.058
V21C	-0.038 ± 0.058
V21P	-0.322 ± 0.056
V21Y	-0.162 ± 0.063
V21N	-0.056 ± 0.072
V21E	0.063 ± 0.081
V21S	-0.165 ± 0.063
V21Q	-0.008 ± 0.099
V21M	-0.517 ± 0.12
V21F	0.041 ± 0.12

Variant	abundance fitness
V21R	-0.012 ± 0.049
V21W	-0.241 ± 0.075
V21A	0.097 ± 0.058
P20M	-0.314 ± 0.081
P20E	-0.426 ± 0.33
P20W	-0.339 ± 0.35
D19S	-0.163 ± 0.063
D19A	-0.551 ± 0.086
D19C	-0.015 ± 0.044
D19W	-1.03 ± 0.085
D19M	-0.845 ± 0.068
D19H	-0.114 ± 0.094
D19L	-0.985 ± 0.11
D19N	-0.611 ± 0.16
D19G	-0.596 ± 0.044
D19Q	-0.66 ± 0.051
D19K	-0.579 ± 0.2
D19Y	-0.861 ± 0.078
D19I	-0.633 ± 0.05
D19R	-0.855 ± 0.085
G23C	-1.08 ± 0.21
G23M	-0.9 ± 0.17
G23S	-0.79 ± 0.052
G23H	-0.822 ± 0.26

Variant	abundance fitness
G23R	-0.56 ± 0.048
G23Q	-1.34 ± 0.1
G23K	-0.762 ± 0.079
G23V	-1.2 ± 0.11
G23L	-1.13 ± 0.059
G23W	-0.8 ± 0.052
G23A	-1.1 ± 0.083
G23N	-0.822 ± 0.14
G23D	-0.884 ± 0.093
G23P	-0.958 ± 0.14
G23E	-0.801 ± 0.12
G23F	-0.826 ± 0.3
D28A	-1.16 ± 0.095
D28C	-1 ± 0.066
D28G	-1.07 ± 0.065
D28H	-0.634 ± 0.048
D28E	-0.696 ± 0.065
D28F	-1.12 ± 0.27
V27K	0.044 ± 0.062
V27A	-0.096 ± 0.06
V27N	-0.34 ± 0.12
V27W	-0.242 ± 0.053
V27T	-0.26 ± 0.042
V27R	-0.069 ± 0.044

Variant	abundance fitness
V27C	-0.055 ± 0.062
V27D	0.071 ± 0.084
V27L	-0.073 ± 0.062
V27Q	-0.227 ± 0.087
V27M	0.038 ± 0.068
V27H	-0.307 ± 0.061
V27I	-0.178 ± 0.098
V27G	-0.378 ± 0.04
V27E	-0.229 ± 0.056
V27P	-0.394 ± 0.055
Y25P	-0.367 ± 0.077
Y25M	-0.033 ± 0.075
Y25C	-0.251 ± 0.069
Y25D	-0.333 ± 0.085
Y25L	-0.593 ± 0.053
Y25I	-0.053 ± 0.09
Y25A	-0.278 ± 0.047
Y25V	-0.079 ± 0.054
Y25W	-0.361 ± 0.061
Y25T	-0.266 ± 0.061
Y25Q	-0.14 ± 0.073
Y25K	0.007 ± 0.083
Y25E	-0.26 ± 0.082
Y25G	-0.299 ± 0.041

Variant	abundance fitness
Y25N	-0.447 ± 0.077
Y25F	-0.148 ± 0.07
Y25H	-0.192 ± 0.092
Y25S	-0.119 ± 0.044
E18P	-0.549 ± 0.13
E18K	-0.269 ± 0.12
E18C	-0.132 ± 0.091
E18F	-0.263 ± 0.067
E18H	-0.094 ± 0.086
E18I	-0.196 ± 0.11
E18Q	-0.794 ± 0.45
E18N	-0.03 ± 0.097
E18A	-0.014 ± 0.069
E18V	-0.1 ± 0.068
E18D	-0.15 ± 0.073
E18L	-0.311 ± 0.062
E18R	-0.461 ± 0.039
E18S	-0.33 ± 0.081
E18T	0.001 ± 0.08
E18Y	-0.39 ± 0.13
E18W	-0.745 ± 0.12
E18G	-0.459 ± 0.047
E18M	-0.231 ± 0.054
